Test [1] deals with equine choriogonadotropin (eCG) or PMSG (equine) (UniProt P01220). As to the kind of experiment: ELISA on commercial eCG, antibody at 1 µg/ml. In general terms: ELISA stands for enzyme-linked immunosorbent assay.
Test [2] has the same target. As to the kind of experiment: ELISA on commercial eCG, antibody at 10 µg/ml.

equine choriogonadotropin (eCG) or PMSG (equine), sequence (P01220 25-120 limits assumed, chain 1 of 2): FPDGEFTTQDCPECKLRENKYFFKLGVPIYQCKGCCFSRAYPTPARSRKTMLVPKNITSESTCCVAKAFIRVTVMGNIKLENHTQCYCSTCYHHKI
equine choriogonadotropin (eCG) or PMSG (equine), sequence (P08751 21-169 limits assumed, chain 2 of 2, further chain): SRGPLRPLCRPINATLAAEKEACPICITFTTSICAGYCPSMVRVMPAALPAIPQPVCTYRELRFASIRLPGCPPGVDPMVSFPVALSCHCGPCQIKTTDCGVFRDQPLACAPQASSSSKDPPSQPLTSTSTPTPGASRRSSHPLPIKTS

In the case of “isotypic control (IgM directed against another type of antigen very remote from the gonadotropic hormones) (antibody)”, the OD in test [1] and in test [2] was 0.09 OD throughout.

These data come from patent publication US20130315928A1.
